Reference: PMC2650715 (DNA repair, 2008)

Tests used:
Assay in all cases: pull-down
[1] = target: T1, Schizosaccharomyces pombe Rdh54 (S. pombe, UniProt Q09772 1-811)
T1 sequence (looked up): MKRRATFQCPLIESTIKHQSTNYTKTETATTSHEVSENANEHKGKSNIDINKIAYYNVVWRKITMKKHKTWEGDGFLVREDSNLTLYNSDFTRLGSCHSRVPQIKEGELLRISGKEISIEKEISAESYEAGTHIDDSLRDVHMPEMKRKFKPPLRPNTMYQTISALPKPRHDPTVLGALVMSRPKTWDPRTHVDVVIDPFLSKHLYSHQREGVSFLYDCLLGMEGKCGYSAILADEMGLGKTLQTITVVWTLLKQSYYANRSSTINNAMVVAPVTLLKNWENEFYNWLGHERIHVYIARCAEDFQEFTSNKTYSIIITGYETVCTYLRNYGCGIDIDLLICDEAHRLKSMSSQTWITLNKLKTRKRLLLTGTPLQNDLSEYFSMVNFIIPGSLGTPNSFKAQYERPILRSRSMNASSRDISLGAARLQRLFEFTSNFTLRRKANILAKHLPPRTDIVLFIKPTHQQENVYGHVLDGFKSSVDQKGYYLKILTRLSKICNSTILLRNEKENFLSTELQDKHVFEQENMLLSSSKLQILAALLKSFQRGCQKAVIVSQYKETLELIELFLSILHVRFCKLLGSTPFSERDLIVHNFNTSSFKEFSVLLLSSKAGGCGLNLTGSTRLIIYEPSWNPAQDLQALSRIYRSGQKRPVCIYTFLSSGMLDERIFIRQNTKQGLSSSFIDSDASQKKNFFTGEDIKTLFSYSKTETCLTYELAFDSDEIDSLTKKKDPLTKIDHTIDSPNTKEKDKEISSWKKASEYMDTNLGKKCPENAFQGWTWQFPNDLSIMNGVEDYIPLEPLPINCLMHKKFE

[2] = target: T2, Saccharomyces cerevisiae Rdh54 (S. cerevisiae, UniProt P38086 1-958)
T2 sequence (looked up): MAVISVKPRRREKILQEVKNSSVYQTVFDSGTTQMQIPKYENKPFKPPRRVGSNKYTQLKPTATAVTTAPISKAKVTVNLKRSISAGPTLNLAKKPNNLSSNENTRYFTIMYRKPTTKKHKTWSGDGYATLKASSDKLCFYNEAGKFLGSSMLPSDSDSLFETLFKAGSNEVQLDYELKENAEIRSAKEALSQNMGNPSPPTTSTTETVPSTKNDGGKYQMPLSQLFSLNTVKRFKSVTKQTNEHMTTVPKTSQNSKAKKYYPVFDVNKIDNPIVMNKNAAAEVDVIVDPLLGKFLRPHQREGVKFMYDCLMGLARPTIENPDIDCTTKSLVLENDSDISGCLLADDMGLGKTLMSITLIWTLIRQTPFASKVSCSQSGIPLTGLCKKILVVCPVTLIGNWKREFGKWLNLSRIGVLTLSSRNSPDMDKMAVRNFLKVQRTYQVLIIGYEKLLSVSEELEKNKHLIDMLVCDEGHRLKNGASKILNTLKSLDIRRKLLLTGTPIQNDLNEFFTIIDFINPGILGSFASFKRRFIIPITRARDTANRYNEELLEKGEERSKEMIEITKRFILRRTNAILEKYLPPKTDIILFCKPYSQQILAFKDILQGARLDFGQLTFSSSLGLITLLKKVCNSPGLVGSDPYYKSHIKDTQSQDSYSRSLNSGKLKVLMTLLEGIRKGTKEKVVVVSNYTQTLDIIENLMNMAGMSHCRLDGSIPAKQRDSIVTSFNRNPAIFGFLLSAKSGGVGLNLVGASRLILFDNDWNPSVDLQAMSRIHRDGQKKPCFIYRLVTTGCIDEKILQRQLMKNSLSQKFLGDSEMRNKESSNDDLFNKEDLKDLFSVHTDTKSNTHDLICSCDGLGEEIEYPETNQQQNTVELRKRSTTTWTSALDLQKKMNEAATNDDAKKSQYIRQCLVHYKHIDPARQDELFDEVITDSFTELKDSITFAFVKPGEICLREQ

[3] = target: T3, Saccharomyces cerevisiae Rdh54 K352R mutant variant (S. cerevisiae, UniProt P38086 1-958, K352R)
T3 sequence (looked up): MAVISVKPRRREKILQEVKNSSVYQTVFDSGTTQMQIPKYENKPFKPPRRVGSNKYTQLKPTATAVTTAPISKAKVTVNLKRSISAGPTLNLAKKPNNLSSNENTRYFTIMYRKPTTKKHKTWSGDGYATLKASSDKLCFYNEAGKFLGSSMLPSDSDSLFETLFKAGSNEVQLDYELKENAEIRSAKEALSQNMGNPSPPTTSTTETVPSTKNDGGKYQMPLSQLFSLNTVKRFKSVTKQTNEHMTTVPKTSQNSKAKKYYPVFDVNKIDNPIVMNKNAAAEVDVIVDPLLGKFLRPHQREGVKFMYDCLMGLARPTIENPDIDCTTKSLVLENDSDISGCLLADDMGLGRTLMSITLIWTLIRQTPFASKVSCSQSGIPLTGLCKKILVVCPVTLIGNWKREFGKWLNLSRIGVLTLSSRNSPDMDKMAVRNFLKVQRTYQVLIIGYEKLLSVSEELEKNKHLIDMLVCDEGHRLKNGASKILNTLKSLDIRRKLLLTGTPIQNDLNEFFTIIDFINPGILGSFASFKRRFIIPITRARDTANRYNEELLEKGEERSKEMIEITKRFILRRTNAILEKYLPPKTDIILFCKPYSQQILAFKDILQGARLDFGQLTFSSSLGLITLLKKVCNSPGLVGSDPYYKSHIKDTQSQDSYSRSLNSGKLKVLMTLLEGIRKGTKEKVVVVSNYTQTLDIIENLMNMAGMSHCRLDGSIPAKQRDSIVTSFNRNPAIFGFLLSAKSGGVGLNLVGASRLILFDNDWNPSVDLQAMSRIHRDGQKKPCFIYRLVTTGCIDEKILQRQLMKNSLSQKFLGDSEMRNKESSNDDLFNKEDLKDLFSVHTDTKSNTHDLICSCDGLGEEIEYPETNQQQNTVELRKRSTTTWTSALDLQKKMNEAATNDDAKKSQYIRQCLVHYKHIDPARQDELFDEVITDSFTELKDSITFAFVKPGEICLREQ

binding result [1]: binds | binding result [2]: binds | binding result [3]: binds
B1: Schizosaccharomyces pombe Dmc1 (enzyme, S. pombe, UniProt O42634 1-332, looked up)
chain: MEEFAEGNDDEQMIFSDIEDLTAHGIGMTDIIKLKQAGVCTVQGVHMSTKRFLLKIKGFSEAKVDKLKEAASKMCPANFSTAMEISQNRKKVWSISTGSEALNGILGGGIQSMSITEVFGEFRCGKTQMSHTLCVTAQLPRDMGGAEGKVAFIDTEGTFRPDRIKAIAERFGVDADQAMENIIVSRAYNSEQQMEYITKLGTIFAEDGQYRLLIVDSIMALFRVDYSGRGELSERQQKLNIMLARLNHISEEFNVAVFVTNQVQADPGAAMMFASNDRKPVGGHVMAHASATRLLLRKGRGEERVAKLNDSPDMPEAECSYVITPGGIADVS
modifications: covalently coupled to Affi-Gel 15 beads
